Results as given in US20120220489A1.

Columns and labels:
[1] = biological target: ERK1 (p42) active (phospho), human, Active Motif 31 152 (human) (UniProt P27361); experiment: RPA, normal assay
[2] = biological target: ERK1 (p44) active (GST tagged), human, Invitrogen PV 3311 (human) (UniProt P27361); experiment: RPA, normal assay
[3] = biological target: ERK1 (p44) inactive (GST tagged), human, Invitrogen PV 3312 (human) (UniProt P27361); experiment: RPA, normal assay
[4] = biological target: ERK1 (p44), human, Cell Signaling Technology 7416 (human) (UniProt P27361); experiment: RPA, normal assay
[5] = biological target: ERK2 (p42), human, Biosource PHO 0104 (human) (UniProt P28482); experiment: RPA, normal assay
[6] = biological target: Erk1-BSA 2.7x peptide-protein conjugate (human; bovine); experiment: RPA, normal assay
[7] = biological target: Histone H3 recombinant protein, calf, Roche 11 034 758 001 (calf) (UniProt P68432); experiment: RPA, normal assay
[8] = biological target: Histone H3 recombinant protein, human, Upstate 14-494 (human) (UniProt P68431); experiment: RPA, normal assay
[9] = biological target: Histone H3-BSA 2.7x peptide-protein conjugate (bovine); experiment: RPA, normal assay
[10] = biological target: pRb recombinant protein, human, Active Motif 31 128 (human) (UniProt P06400); experiment: RPA, normal assay
[11] = biological target: pRb-BSA 1x peptide-protein conjugate (bovine); experiment: RPA, normal assay
[12] = biological target: ERK1 (p42) active (phospho), human, Active Motif 31 152 (human) (UniProt P27361); experiment: RPA, competition: +free Erk1 peptide 1000 nM
[13] = biological target: ERK1 (p44) active (GST tagged), human, Invitrogen PV 3311 (human) (UniProt P27361); experiment: RPA, competition: +free Erk1 peptide 1000 nM
[14] = biological target: ERK1 (p44) inactive (GST tagged), human, Invitrogen PV 3312 (human) (UniProt P27361); experiment: RPA, competition: +free Erk1 peptide 1000 nM
[15] = biological target: ERK1 (p44), human, Cell Signaling Technology 7416 (human) (UniProt P27361); experiment: RPA, competition: +free Erk1 peptide 1000 nM
[16] = biological target: ERK2 (p42), human, Biosource PHO 0104 (human) (UniProt P28482); experiment: RPA, competition: +free Erk1 peptide 1000 nM
[17] = biological target: Erk1-BSA 2.7x peptide-protein conjugate (human; bovine); experiment: RPA, competition: +free Erk1 peptide 1000 nM
[18] = biological target: Histone H3 recombinant protein, calf, Roche 11 034 758 001 (calf) (UniProt P68432); experiment: RPA, competition: +free Erk1 peptide 1000 nM
[19] = biological target: Histone H3 recombinant protein, human, Upstate 14-494 (human) (UniProt P68431); experiment: RPA, competition: +free Erk1 peptide 1000 nM
[20] = biological target: Histone H3-BSA 2.7x peptide-protein conjugate (bovine); experiment: RPA, competition: +free Erk1 peptide 1000 nM
[21] = biological target: pErk1/2-BSA 2.7x peptide-protein conjugate (human; bovine); experiment: RPA, competition: +free Erk1 peptide 1000 nM
[22] = biological target: pRb recombinant protein, human, Active Motif 31 128 (human) (UniProt P06400); experiment: RPA, competition: +free Erk1 peptide 1000 nM
[23] = biological target: pRb-BSA 1x peptide-protein conjugate (bovine); experiment: RPA, competition: +free Erk1 peptide 1000 nM
[24] = biological target: ERK1 (p42) active (phospho), human, Active Motif 31 152 (human) (UniProt P27361); experiment: RPA, competition: +recombinant protein 100 nM (not named)
[25] = biological target: ERK1 (p44) active (GST tagged), human, Invitrogen PV 3311 (human) (UniProt P27361); experiment: as above
[26] = biological target: ERK1 (p44) inactive (GST tagged), human, Invitrogen PV 3312 (human) (UniProt P27361); experiment: as above
[27] = biological target: ERK1 (p44), human, Cell Signaling Technology 7416 (human) (UniProt P27361); experiment: as above
[28] = biological target: ERK2 (p42), human, Biosource PHO 0104 (human) (UniProt P28482); experiment: as above
[29] = biological target: Erk1-BSA 2.7x peptide-protein conjugate (human; bovine); experiment: as above
[30] = biological target: Histone H3 recombinant protein, calf, Roche 11 034 758 001 (calf) (UniProt P68432); experiment: as above
[31] = biological target: Histone H3 recombinant protein, human, Upstate 14-494 (human) (UniProt P68431); experiment: as above
[32] = biological target: Histone H3-BSA 2.7x peptide-protein conjugate (bovine); experiment: as above
[33] = biological target: pErk1/2-BSA 2.7x peptide-protein conjugate (human; bovine); experiment: as above
[34] = biological target: pRb recombinant protein, human, Active Motif 31 128 (human) (UniProt P06400); experiment: as above
[35] = biological target: pRb-BSA 1x peptide-protein conjugate (bovine); experiment: as above

Sequence of UniProt P06400 (P06400 whole entry): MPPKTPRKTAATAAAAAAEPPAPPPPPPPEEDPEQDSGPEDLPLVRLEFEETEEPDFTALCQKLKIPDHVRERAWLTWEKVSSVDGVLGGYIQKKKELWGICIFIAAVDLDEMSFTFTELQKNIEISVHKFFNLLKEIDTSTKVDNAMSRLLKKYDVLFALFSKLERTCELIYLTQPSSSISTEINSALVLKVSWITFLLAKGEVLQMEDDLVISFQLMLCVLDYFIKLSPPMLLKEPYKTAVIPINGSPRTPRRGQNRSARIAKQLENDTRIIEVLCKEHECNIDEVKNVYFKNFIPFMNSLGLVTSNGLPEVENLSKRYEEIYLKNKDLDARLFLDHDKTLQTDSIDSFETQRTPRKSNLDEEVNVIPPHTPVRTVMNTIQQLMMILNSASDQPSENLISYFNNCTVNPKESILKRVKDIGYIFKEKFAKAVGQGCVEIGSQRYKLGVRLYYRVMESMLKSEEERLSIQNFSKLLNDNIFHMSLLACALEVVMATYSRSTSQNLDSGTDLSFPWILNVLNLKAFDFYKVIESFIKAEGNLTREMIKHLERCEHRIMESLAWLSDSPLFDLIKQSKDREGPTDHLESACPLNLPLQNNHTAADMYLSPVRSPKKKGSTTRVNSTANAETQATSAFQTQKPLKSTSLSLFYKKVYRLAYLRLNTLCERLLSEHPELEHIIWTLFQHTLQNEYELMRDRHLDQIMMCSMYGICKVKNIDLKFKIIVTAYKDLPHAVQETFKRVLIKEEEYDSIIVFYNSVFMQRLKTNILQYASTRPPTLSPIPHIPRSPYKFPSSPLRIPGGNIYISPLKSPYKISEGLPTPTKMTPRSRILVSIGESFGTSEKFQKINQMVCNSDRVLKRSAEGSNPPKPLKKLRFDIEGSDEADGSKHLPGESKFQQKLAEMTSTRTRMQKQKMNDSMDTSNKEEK
Sequence of pRb-BSA 1x peptide-protein conjugate (bovine) (P02769 25-607 limits assumed): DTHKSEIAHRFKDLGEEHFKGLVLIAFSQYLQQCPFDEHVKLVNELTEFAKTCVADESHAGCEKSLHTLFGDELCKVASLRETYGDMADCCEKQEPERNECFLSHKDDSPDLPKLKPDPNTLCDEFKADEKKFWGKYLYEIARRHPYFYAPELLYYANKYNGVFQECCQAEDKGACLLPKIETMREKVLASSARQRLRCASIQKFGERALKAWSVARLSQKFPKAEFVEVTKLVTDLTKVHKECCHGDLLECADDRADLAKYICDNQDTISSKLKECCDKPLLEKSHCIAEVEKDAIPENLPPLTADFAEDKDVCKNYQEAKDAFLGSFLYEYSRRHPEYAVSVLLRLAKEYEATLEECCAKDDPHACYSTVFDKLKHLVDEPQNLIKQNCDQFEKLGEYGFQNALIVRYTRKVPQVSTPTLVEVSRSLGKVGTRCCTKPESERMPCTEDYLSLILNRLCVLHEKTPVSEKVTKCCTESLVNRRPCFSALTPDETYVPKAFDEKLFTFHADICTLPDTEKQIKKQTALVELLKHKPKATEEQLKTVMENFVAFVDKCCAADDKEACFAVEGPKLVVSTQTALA
Sequence of Histone H3-BSA 2.7x peptide-protein conjugate (bovine) (P02769 25-607 limits assumed): as above
Sequence of pErk1/2-BSA 2.7x peptide-protein conjugate (human; bovine) (P02769 25-607 limits assumed): as above
Sequence of Erk1-BSA 2.7x peptide-protein conjugate (human; bovine) (peptide, as listed by the source limits assumed, chain 1 of 2): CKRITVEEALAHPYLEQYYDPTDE
Sequence of Erk1-BSA 2.7x peptide-protein conjugate (human; bovine) (P02769 25-607 limits assumed, chain 2 of 2): as the sequence (P02769 25-607 limits assumed) above
Sequence of UniProt P28482 (P28482 2-360 limits assumed): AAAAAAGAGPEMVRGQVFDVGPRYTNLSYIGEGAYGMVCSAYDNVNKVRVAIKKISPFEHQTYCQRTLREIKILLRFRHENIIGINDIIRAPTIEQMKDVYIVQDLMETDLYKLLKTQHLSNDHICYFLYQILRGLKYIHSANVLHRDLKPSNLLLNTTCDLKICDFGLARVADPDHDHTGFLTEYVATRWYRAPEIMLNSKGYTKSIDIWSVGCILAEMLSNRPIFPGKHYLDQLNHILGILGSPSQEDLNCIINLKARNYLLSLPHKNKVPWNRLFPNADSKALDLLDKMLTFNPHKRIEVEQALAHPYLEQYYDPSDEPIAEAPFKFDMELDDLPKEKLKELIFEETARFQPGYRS

| Substance | maximum standard curve signal [1] | maximum standard curve signal [2] | maximum standard curve signal [3] | maximum standard curve signal [4] | maximum standard curve signal [5] | maximum standard curve signal [6] | maximum standard curve signal [9] | maximum standard curve signal [11] | maximum standard curve signal [12] | maximum standard curve signal [13] | maximum standard curve signal [14] | maximum standard curve signal [15] | maximum standard curve signal [16] | maximum standard curve signal [17] | maximum standard curve signal [18] | maximum standard curve signal [19] | maximum standard curve signal [20] | maximum standard curve signal [21] | maximum standard curve signal [22] | maximum standard curve signal [23] | further results |
| --- | --- | --- | --- | --- | --- | --- | --- | --- | --- | --- | --- | --- | --- | --- | --- | --- | --- | --- | --- | --- | --- |
| p44/42 MAPK (Erk1/2) antibody, Cell Signaling Technology #4695, rabbit monoclonal | 0.22 RFI | 5.17 RFI | 7.12 RFI | 0.04 RFI | 1.51 RFI | 2.77 RFI | 0.01 RFI | 0.01 RFI | < 0.01 RFI | 0.02 RFI | 0.04 RFI | < 0.01 RFI | 0.01 RFI | 0.01 RFI | < 0.01 RFI | < 0.01 RFI | 0.01 RFI | 0.01 RFI | < 0.01 RFI | 0.01 RFI | maximum standard curve signal [7]: 0.01 RFI; maximum standard curve signal [8]: 0.01 RFI; maximum standard curve signal [10]: 0.01 RFI; maximum standard curve signal [24]: 0.11 RFI; maximum standard curve signal [25]: 0.39 RFI; maximum standard curve signal [26]: 0.59 RFI; maximum standard curve signal [27]: 0.1 RFI; maximum standard curve signal [28]: 0.16 RFI; maximum standard curve signal [29]: 0.29 RFI; maximum standard curve signal [30]: 0.08 RFI; maximum standard curve signal [31]: 0.1 RFI; maximum standard curve signal [32]: 0.12 RFI; maximum standard curve signal [33]: 0.09 RFI; maximum standard curve signal [34]: 0.09 RFI; maximum standard curve signal [35]: 0.1 RFI |
| p44/42 MAPK (Erk1/2) antibody, Cell Signaling Technology #9102, rabbit polyclonal | 0.36 RFI | 7.2 RFI | 8.96 RFI | 0.05 RFI | 1.51 RFI | 2.44 RFI | 0.08 RFI | 0.01 RFI | 0.23 RFI | 4.65 RFI | 7.28 RFI | 0.03 RFI | 0.91 RFI | 0.06 RFI | < 0.01 RFI | < 0.01 RFI | 0.07 RFI | 0.01 RFI | < 0.01 RFI | 0.01 RFI | maximum standard curve signal [24]: 0.03 RFI; maximum standard curve signal [25]: 0.11 RFI; maximum standard curve signal [26]: 0.19 RFI; maximum standard curve signal [27]: 0.03 RFI; maximum standard curve signal [28]: 0.07 RFI; maximum standard curve signal [29]: 0.12 RFI; maximum standard curve signal [30]: 0.03 RFI; maximum standard curve signal [31]: 0.03 RFI; maximum standard curve signal [32]: 0.1 RFI; maximum standard curve signal [33]: 0.04 RFI; maximum standard curve signal [34]: 0.04 RFI; maximum standard curve signal [35]: 0.04 RFI |
